Measurements: patent US20150119342A1 (published 2015)
Where no end group is shown, it is not given here. [ ]: non-standard residue; d: D form. The star is where a group is joined. 5FAM = O=C1OC2(c3ccc(O)cc3Oc3cc(O)ccc32)c2ccc(C(=O)*)cc21; Abu = CC[C@H](N)C(=O)O

Key:
[1] = target: T1, human cIAP2 BIR3 domain with C-terminal 6xHis-tag (human, UniProt Q13489 237-349, limits assumed); test: fluorescence polarization, saturation binding; 2 nM probe, protein 0 to 20 µM
T1 construct: domain: BIR3
Method: (§1) After shaking (15 min) the plate was incubated for 3 hours at room temperature. […] All experiments were performed in black, flat-bottom 96-well microplates (Greiner bio-one).

[2] = target: T2, human cIAP1 BIR3 domain with C-terminal 6xHis-tag (human, UniProt Q13490 251-363, limits assumed); test: as above
T2 construct: domain: BIR3
Method: as §1

T1 sequence (Q13489 other isoform, or with tags, fused parts or gaps limits assumed): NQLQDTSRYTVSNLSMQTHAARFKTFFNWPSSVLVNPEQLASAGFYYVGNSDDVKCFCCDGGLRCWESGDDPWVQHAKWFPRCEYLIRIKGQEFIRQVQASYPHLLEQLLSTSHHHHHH
T2 sequence (Q13490 other isoform, or with tags, fused parts or gaps limits assumed): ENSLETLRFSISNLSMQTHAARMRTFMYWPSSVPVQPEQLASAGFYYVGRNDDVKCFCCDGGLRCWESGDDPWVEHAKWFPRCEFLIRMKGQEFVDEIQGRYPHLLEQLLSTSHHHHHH

B1: Fluorescent-labelled Smac peptide [AbuRPF-K(5-Fam)-NH2] (peptide)
peptide: [Abu]RPFK(5FAM)-NH2
modifications: N-terminus assumed
SMILES: CC[C@H](N)C(=O)N[C@@H](CCCNC(=N)N)C(=O)N1CCC[C@H]1C(=O)N[C@@H](Cc1ccccc1)C(=O)N[C@@H](CCCCNC(=O)c1ccc2c(c1)C(=O)OC21c2ccc(O)cc2Oc2cc(O)ccc21)C(N)=O
notes: Synthetic labelled probe used in the fluorescence polarization assays; also called FITC-SMAC; fluorescently-labelled Smac peptide
For B1, the Kd [1] was 23.6 nM and the Kd [2] was 4.8 nM.
